The experiment concerns the target NMDA receptor NR1-1a subunit, full length (rat). The experiment can be described thus: co-IP.

As for “C-terminal Src kinase (Csk) (from UniProt P41240 1-450) (enzyme)”, the Csk co-precipitated with NR1 after PP2 (10 μM), percent of that without PP2 stood at 48%.

The values above are taken from article PMC3032389.
